This is an account of results in patent US11911450B2, “Method for managing pain” (UNIVERSITY OF MIAMI, priority 2017, dated 2024).

Experiment [1] concerns ITPR1-mediated cytoplasmic calcium release. Nature of the experiment: ATP-induced cytoplasmic calcium release in HEK293 cells (Fura-2 imaging). In kind it is cell-based, human. To be noted: 1 μM ATP, overexpression vs empty vector. The procedure: Cell culture and transfections: Human neuronal-derived (e.g., NBL), human non-neuronal derived (e.g., HEK293) cells, or dispersed rodent primary DRG cells can be used. HEK293 cells (cat #CRL-1573 ATCC Manassas, VA) were cultured in Dulbecco's modified Eagle's medium (DMEM-Glutamax cat #0566; Invitrogen) supplemented with 10% fetal bovine serum, FBS (cat #16140 ThermoFisher scientific, Waltham, MA) and 1% penicillin/streptomycin (cat #15140 ThermoFisher scientific, Waltham, MA). Cells were seeded in six-well plates at density of 1.0×10^5 cells per well. The following day, cells were transfected with plasmids via lipofectamine LTX reagent and plus (cat #15338 ThermoFisher scientific, Waltham, MA). For each transfection 2 μg of AAV2-ITR (control), AAV2-V5-Car10, or AAV2-V5-CA10 vectors was used. In various embodiments of the disclosure described herein, 2 μg of expression vectors (including positive and negative controls) in instances when AAV2 is not the viral vector employed.
(§1) Pharmacodynamics—Bioassay of Calcium Release: Fifteen mm glass coverslips (cat #72228 Electron Microscopy Sciences, Hatfield, PA) were coated with poly-D-Lysine (Sigma) followed by Laminin and 1×10^5 cells were seeded on each coverslip. Twenty-four hrs later, cells were transfected with AAV2-ITR, AAV2-V5-Car10, or AAV2-V5-CA10 vectors as previously described. In embodiments wherein AAV2 is not employed, other expression vectors (including viral vectors) are used. Fura-2AM (cat #F1221 ThermoFisher scientific, Waltham, MA) was dissolved in DMSO (50 μg in 50 μl) and 1% pluronic acid-127 (cat #P2443 Sigma, St Louis, MO) as the stock solution. Forty eight hrs after seeding, cells were loaded with 2 μM Fura-2AM dye for 45 min at room temperature in the dark in a standard Ca+2 buffer solution containing: 125 mM NaCl, 2 mM MgCl, 4.5 mM KCl, 10 glucose, 20 mM HEPES, 2 mM CaCl2, pH 7.4.25. Following dye loading, coverslips were washed with Ca^+2 buffer solution. […] Regions of interest over the field of view were selected and the mean pixels intensity at each frame was measured. Data was plotted as ratio fluorescence intensity versus time and subsequently converted to a relative scale.
To further examine whether FLAG-CA8-204 (data not shown), V5-Car10 and V5-CA10 overexpression can inhibit ATP-induced calcium release, HEK293 cells were infected with each if these constructs and real-time intracellular calcium concentrations at baseline and in response to ATP stimulation were measured (FIG. 2). […]

A further experiment addresses ITPR1 (Homo sapiens, UniProt Q14643). The experiment can be described thus: co-immunoprecipitation / western blot with ITPR1 and pITPR1. In kind it is binding. Set-up: before and after forskolin stimulation of HEK293 cells was conducted; endogenous in cells; host or cells: HEK293 (ATCC CRL-1573). To be noted: HEK293 cells, before and after forskolin stimulation. The procedure: Immunoprecipitation: Fifty μl magnetic beads (Invitrogen) were incubated with 1 μg pITPR1 antibody for 45 minutes at 4° C. The supernatant was discarded and the beads were washed with binding buffer. Sample proteins of 200-400 μg were added and incubated with the beads for 4 hrs at 4° C. Then the protein complex was washed 3 times with washing buffer, and then eluted with SDS sample buffer. Samples were then heated at 70° C. for 10 min and then subjected to western blot analysis for Car10. The method described herein also is suitable for use in connection with Car8, CA8, CA8 fragment (CA8-204), CA10, Car11 and CA11.
Overexpression of V5-Car10 and V5-CA10 inhibits ATP-induced free calcium release in vitro: ITPR1 contains functionally distinct domains, including the ‘modulatory’ domain responding to intracellular modulators such as calcium, calmodulin, ATP, and carbonic anhydrase-8 (Car8). ATP increases ITPR1-dependent calcium release by increasing the open probability of the channel in the presence of activating concentrations of IP3 and calcium. It is believed that Car8-mediated inhibition of ITPR1 activation and ATP-mediated calcium release requires binding to this modulatory domain. Therefore, the ability of CA8 fragments (e.g., CA8-204), Car10 and CA10 to bind to ITPR1 and pITPR1 was examined. […]

The test system of experiment [2] is intracellular calcium release in NBL cells. Nature of the experiment: ATP-stimulated calcium release in NBL cells (Fura2 imaging). In kind it is cell-based, human. The note with it: 1 μM ATP, vs empty vector. The method, then:
as §1, with “scale. […]” for “scale.”

ITPR1, sequence (Q14643 whole entry): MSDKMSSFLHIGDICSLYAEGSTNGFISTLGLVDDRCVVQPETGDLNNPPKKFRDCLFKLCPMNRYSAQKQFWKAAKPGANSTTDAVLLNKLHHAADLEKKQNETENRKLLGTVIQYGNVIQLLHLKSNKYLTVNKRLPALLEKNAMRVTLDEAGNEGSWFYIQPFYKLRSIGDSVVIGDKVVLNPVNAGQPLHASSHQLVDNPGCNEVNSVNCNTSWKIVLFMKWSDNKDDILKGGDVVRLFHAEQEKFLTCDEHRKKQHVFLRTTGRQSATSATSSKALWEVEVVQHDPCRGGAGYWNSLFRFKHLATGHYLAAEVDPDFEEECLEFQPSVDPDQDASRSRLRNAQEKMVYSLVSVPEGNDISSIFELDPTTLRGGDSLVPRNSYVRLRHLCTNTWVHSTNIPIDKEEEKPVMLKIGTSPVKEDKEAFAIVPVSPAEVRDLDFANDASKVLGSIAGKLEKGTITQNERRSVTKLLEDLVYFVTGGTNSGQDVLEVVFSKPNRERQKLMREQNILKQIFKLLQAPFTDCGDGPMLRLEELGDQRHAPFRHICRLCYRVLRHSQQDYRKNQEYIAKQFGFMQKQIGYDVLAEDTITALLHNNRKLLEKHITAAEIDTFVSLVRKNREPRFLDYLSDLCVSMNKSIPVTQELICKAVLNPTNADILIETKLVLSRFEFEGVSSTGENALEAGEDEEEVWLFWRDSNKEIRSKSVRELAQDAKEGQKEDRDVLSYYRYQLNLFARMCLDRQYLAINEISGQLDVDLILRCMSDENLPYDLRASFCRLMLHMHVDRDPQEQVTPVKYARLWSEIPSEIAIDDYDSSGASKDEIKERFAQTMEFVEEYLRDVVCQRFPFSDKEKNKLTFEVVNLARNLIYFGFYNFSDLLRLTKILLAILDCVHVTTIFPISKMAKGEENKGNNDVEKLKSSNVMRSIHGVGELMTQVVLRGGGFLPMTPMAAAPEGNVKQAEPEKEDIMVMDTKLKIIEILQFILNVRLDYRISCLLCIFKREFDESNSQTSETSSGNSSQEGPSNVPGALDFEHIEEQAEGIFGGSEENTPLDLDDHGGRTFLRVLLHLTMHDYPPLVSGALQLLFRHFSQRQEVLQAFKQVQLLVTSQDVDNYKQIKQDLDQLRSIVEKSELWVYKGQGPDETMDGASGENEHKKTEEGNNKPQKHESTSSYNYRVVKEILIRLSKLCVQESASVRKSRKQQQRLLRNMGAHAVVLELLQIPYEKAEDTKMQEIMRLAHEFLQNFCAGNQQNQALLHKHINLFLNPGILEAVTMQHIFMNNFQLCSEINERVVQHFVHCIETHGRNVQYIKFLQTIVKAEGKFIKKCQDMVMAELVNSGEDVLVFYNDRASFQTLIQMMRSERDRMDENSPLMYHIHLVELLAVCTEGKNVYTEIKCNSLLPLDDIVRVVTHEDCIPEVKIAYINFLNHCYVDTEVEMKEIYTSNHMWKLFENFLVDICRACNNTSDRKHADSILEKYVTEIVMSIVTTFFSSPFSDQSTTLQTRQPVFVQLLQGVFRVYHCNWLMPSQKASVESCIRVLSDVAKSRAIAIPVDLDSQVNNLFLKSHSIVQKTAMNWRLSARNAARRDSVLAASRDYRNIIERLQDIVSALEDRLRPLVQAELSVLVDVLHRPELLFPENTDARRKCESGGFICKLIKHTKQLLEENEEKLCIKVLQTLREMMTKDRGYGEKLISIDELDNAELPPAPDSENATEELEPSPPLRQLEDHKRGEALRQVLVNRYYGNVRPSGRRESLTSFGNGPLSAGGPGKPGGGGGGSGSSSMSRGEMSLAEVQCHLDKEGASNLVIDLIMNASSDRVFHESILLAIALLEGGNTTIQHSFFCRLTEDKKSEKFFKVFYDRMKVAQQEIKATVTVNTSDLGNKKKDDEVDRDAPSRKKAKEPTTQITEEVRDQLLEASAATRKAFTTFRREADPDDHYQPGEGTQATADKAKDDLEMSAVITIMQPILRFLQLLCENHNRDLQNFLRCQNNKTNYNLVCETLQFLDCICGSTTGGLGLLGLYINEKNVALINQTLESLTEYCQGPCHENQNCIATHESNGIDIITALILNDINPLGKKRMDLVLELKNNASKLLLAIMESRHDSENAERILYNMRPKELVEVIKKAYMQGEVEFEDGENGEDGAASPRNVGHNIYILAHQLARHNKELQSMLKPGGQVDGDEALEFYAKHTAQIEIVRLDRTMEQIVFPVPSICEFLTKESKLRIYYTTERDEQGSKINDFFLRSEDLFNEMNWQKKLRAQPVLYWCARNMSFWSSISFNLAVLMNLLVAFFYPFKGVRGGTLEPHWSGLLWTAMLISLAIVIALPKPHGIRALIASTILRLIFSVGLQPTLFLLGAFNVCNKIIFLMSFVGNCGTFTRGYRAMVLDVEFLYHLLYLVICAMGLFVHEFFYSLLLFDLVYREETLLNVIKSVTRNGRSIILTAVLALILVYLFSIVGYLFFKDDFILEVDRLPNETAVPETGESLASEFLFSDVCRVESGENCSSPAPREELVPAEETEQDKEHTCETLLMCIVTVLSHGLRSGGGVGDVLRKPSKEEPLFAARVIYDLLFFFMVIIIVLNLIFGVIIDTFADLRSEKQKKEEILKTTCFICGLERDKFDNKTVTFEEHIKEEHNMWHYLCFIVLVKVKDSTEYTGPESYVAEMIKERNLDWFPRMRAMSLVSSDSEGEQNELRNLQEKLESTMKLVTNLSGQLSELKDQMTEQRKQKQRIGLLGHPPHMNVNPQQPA

B1: Car10: carbonic anhydrase 10, rodent ortholog, overexpressed (V5-tagged) protein (protein)
chain: MEIVWEVLFLLQANFIVCISAQQNSPKIHEGWWAYKEVVQGSFVPVPSFWGLVNSAWNLCSVGKRQSPVNIETSHMIFDPFLTPLRINTGGRKVSGTMYNTGRHVSLRLDKEHLVNISGGPMTYSHRLEEIRLHFGSEDSQGSEHLLNGQAFSGEVQLIHYNHELYTNVTEAAKSPNGLVVVSIFIKVSDSSNPFLNRMLNRDTITRITYKNDAYLLQGLNIEELYPETSSFITYDGSMTIPPCYETASWIIMNKPVYITRMQMHSLRLLSQNQPSQIFLSMSDNFRPVQPLNNRCIRTNINFSLQGKDCPNNRAQKLQYRVNEWLLK
modifications: left off: small tags and cut ends
notes: carbonic anhydrase 10, rodent ortholog, overexpressed (V5-tagged) protein
As to B1, the “ATP-induced cytoplasmic calcium release (Fura-2 340/380 ratio)” value is “inhibits ITPR1-mediated cytoplasmic calcium release” in experiment [1] and “inhibits ATP-induced cytoplasmic calcium release” in experiment [1] (listed as V5-Car10). In addition, the “binding to ITPR1 (co-immunoprecipitation)” value with ITPR1 was “do not bind to ITPR1”.

B2: CA10: human carbonic anhydrase 10, overexpressed (V5-tagged) protein; SEQ ID NO: 9 (protein)
chain: B1 chain
modifications: V5 tag
Consider B2, for which the entries for the “ATP-induced cytoplasmic calcium release (Fura-2 340/380 ratio)” value in experiment [1] and in experiment [1] (listed as V5-CA10) were “inhibits ITPR1-mediated cytoplasmic calcium release” and “inhibits ATP-induced cytoplasmic calcium release”, respectively. In experiment [2], the ATP-stimulated calcium release result is on record as “inhibited”. Moreover, in the experiment with ITPR1, the “binding to ITPR1 (co-immunoprecipitation)” value is “do not bind to ITPR1”.
